Numbering of substitutions follows the chain as printed.
B1: h140Hm13/h140Lm11 (antibody, V domains shown)
VH: EVQLVQSGAEVKKPGASVKVSCKASGYKFTNYVMSWVRQAPGQRLEWMGYINPYNDAIKYNEKFTGRVTITRDTSASTAYMELSSLRSEDTAVYYCAREGDFYANYGRLGFAYWGQGTLVTVSS
VL: DIQMTQSPSSLSASVGDRVTITCRASQDITNYLNWYQQKPGKAPKLLIYYTSRLSSGVPSRFSGSGSGTDYTFTISSLQPEDIATYFCQQGDTRPYTFGGGTKVEIK
B2: h140Hm13/h140Lm17 (antibody, V domains shown)
VH: B1 VH
VL: B1 VL with S55Q, R94E
B3: h140Hm13/h140Lm14 (antibody, V domains shown)
VH: B1 VH
VL: B1 VL with S55Q, R94Y
B4: h140Hm13/h140Lm16 (antibody, V domains shown)
VH: B1 VH
VL: B1 VL with S55Q, R94S
B5: h140Hm13/h140Lm18 (antibody, V domains shown)
VH: B1 VH
VL: B1 VL with S55Q, R94N
B6: h140Hm13/h140Lm13 (antibody, V domains shown)
VH: B1 VH
VL: B1 VL with S55H, R94F
B7: h140Hm13/h140Lm12 (antibody, V domains shown)
VH: B1 VH
VL: B1 VL with S55Q
B8: h140Hm13/h140Lm15 (antibody, V domains shown)
VH: B1 VH
VL: B1 VL with S55Q, R94K

target: CD47 on the surface of human red blood cells (human) (UniProt Q08722); experiment: FACS, hRBC, 500 nM

FACS (MFI)	Binder
789 MFI	B1
689 MFI	B2
921 MFI	B3
721 MFI	B4
697 MFI	B5
1760 MFI	B6
946 MFI	B7
954 MFI	B8
